Test results reported in US20080089862A1, “PROTEASE INHIBITORS AND METHOD OF SCREENING THEREOF” (priority 2005, published 2008).

Key:
scNS3 = molecular target: T1, scNS3 (Hepatitis C virus genotype 1b, UniProt P26663); assay: Competition ELISA with myc-tagged tracer scFvs 171 and 35 on scNS3-coated plates; format: binding, Hepatitis C virus (HCV) genotype Ib; conditions: tracers scFv 171 and 35, myc tag
T1 construct: a single-chain fusion linking the NS4A cofactor peptide to the N-terminus of the NS3 protease; inferred from the IMAC purification; made in house; host or cells: E. coli BL-21 (DE3) carrying pYB-43
Experimental: For competition ELISA the inventors replaced the C-terminal FLAG epitope of the scFvs that were used as tracers with a myc tag. Competing scFvs were added to scNS3-coated plates at varying concentrations and incubated at room temperature for 1 hr before adding the tracer scFvs. Binding of the tracers was monitored using a HRP-conjugated anti myc antibody (Sigma, Israel).

MBP-scNS3 [1] = molecular target: T2, MBP-scNS3 (Hepatitis C virus genotype 1b, UniProt P26663); assay: ONPG hydrolysis (β-galactosidase) assay in genetic screening bacteria as indicator of NS3 activity; format: cell-based, Hepatitis C virus (HCV) genotype Ib; conditions: E. coli TG-I carrying pMGT14 and pMALc-NN-scFv; taken from FIG. 3A
T2 construct: made in house
Experimental: (§1) NS3 catalysis inhibition assays. Blue colonies of E. coli TG-I cells carrying pMGT14 and pMALc-NN-scFv that were isolated by the genetic screening were grown in LB medium supplemented with 100 μg/ml ampicillin, 50 μg/ml kanamycin and induced with 0.2% (w/v) arabinose and 0.5 mM IPTG at O.D600nm=0.6 for 4 hr at 30° C. To measure the β-galactosidase activity an ONPG hydrolysis assay (Bach et al., 2001) was carried out. An in vitro fluorometric assay for the measurement of NS3 protease catalysis inhibition by the purified scFvs was carried out essentially as described (Berdichevsky et al., 2003) with the following modifications: the EFGP-NS5A/B-CBD substrate was immobilized onto cellulose prior to its exposure to enzyme and inhibitor. The reactions were carried out in 96 well plates in a volume of 100 μl containing 5 μM immobilized substrate, 100 nM MBP-5cNS3 and 2.4 or 1.2 μM of tested MBP-scFv.

MBP-scNS3 [2] = molecular target: T2, MBP-scNS3; assay: In vitro fluorometric assay of NS3 protease catalysis inhibition; format: biochemical, Hepatitis C virus (HCV) genotype Ib; conditions: 100% minus % catalysis of FIG. 3B; 100 nM MBP-scNS3, 5 μM immobilized substrate, 2.4 or 1.2 μM MBP-scFv
Experimental: as §1

HCV RNA replicons = assay: Inhibition of HCV RNA replicon amplification, SEAP secretion from replicon-bearing Huh7 cells transfected with intrabodies; format: cell-based, HCV genotype Ib strain N; conditions: transiently transfected intrabodies
Experimental: Cells and transfections. HCV genotype Ib strain N subgenomic replicon cell lines were obtained from Stanley Lemon and are described in (Bourne et al., 2005). En5-3 cells are a clonal cell line derived from Huh7 cells by stable transformation with the plasmid pLTR-SEAP. These cells were cultured in DMEM supplemented with 10% fetal calf serum, 2 μg/ml blasticidin (Invitrogen), penicillin, and streptomycin. Following transfection with Ntat2ANeo replicon RNAs, cells supporting replicon amplification were selected and maintained in the above media containing in addition 400 μg/ml G418 (geneticin). Cell lines were passaged once or twice per week. […] The culture medium was replaced every 24 h post transfection and the secreted alkaline phosphatase (SEAP) activity was measured in these fluids as described below, reflecting the daily production of SEAP by the cells.
Alkaline phosphatase assay. […] The luminescent signal was read using a TD-20/20 Luminometer (Turner Designs, Inc.).
For intracellular expression of the anti-NS3 protease single-chain antibodies in the cytoplasm of mammalian cells, the scFvs coding genes were subcloned as Ncol-Notl fragments, form plasmid pMALc-NN-scFv into the pCMV/myc/cyto-MBP vector (Shaki-Loewenstein et al, 2005). […] SEAP activity secreted from the cells was measured over successive 24-h intervals. […]

NS3 = molecular target: T3, NS3 (Hepatitis C virus genotype 1b, UniProt P26663); assay: Competitive in vitro fluorometric assay with epitope mimetic peptide; format: biochemical, Hepatitis C virus (HCV); conditions: scFv 200 μg/ml
T3 construct: made in house
Excerpt: In order to confirm the prediction of scFv 35 and 171 shared epitope on NS3, the epitope was reconstituted on basis of the prediction. To that end, a short peptide segment of NS3 that was predicted to comprise the antibodies shared epitope was used to generate an epitope mimetic. […] As negative controls, a peptide 21 amino acids in length denoted peptide 6 (N′-[…]-C, SEQ ID NO: 111) and a peptide eight amino acids in length denoted peptide x (N′-[…]-C, SEQ ID NO: 112) were used. To test whether those peptides have any effect on NS3 catalytic activity a control in vitro assay was performed, in which the peptides and the NS3 enzyme were added alone without the inhibitor antibodies.

Molecule | competition with scFvs 171 and 35 for specific binding to scNS3 (scNS3) | β-gal: β-galactosidase units (MBP-scNS3 [1]) | % inhibition (MBP-scNS3 [2]) [%] | inhibition of SEAP secretion (in words) (HCV RNA replicons) | NS3 catalysis with scFv, without peptide (NS3; no peptide) [%] | NS3 catalysis with scFv in the presence of the epitope mimetic peptide (NS3; peptide mimetic 50 μM) [%] | increase of NS3 catalytic activity on adding the peptide mimetic (NS3; peptide mimetic 50 μM)
scFv 1: NS3-inhibiting single-chain antibody, SEQ ID NO:1; MBP fusion SEQ ID NO:15 (protein, scFv inhibitor) scFv: EVQLQQSGPELVKPGASVKMSCKASGYTFTDYYIKWVKQSHGKSLEWIGVINPGSGGTNYNEKFKGKATLTADKSSSTAYMQLSSLTSENSAVYFCARRAGTGYYFDYWGQGTTVTVSSGGGGSGGGGSGGGGSDVLMTQTPLSLPVSLGDQASISCRSSQSIVHSNGNTYLEWYLQKPGQSPKLLIYKVSNRFSGVPDRFSGSGSGTDFTLKISRVEAEDLGVYYCFQGSHVPLTFGAGTKLEIKR | could compete | 44 β-galactosidase units | 46 |  |  |  | 
scFv 10: NS3-inhibiting single-chain antibody, SEQ ID NO:11; MBP fusion SEQ ID NO:25 (protein, scFv inhibitor) scFv: QVQLQQSGAELMKPGASVKISCKATGYTFSNYWIEWVKQRPGHGLEWIGGILPGSGSTNYNEKFKGKATFTADTSSNTAYLQLSSLTSEDTAVYYCNADGPPGFDYWGQGTTLTVSSGGGGSGGGGSGGGGSDVLMTQTPLTLSVTIGQPASISCKSSQSLLDSDGKTYLNWLLQRPGQSPKRLIYLVSKLDSGVPDRFTGSGSGTDFTLKISRVEAEDLGVYYCFQGSHVPFTFGSGTKLEIKR | could compete | 48 β-galactosidase units | 62 |  |  |  | 
scFv 11: NS3-inhibiting single-chain antibody, SEQ ID NO:10; MBP fusion SEQ ID NO:24 (protein, scFv inhibitor) scFv: EVQLQQSGAELVKPGASVKLSCTASGFNIKDYYMHWVKQRPGQGLEYIGRIYPGNGQTDYNGKFKGKATLTADKSSSTAYMQLSSLTSVDSAVYFCARGLFAYWGQGTLVTVSSGGGGSGGGGSGGGGSDVVMTQTPLSLPVSFGDQVSISCRSSQSLANSYGNTYLSWCLHKPGQSPQLLIYGISNRFSGVPDRFSGSGSGTDFTLKISTIKPEDLGMYYCLQGTHQPLTFGAGTKLEIKR | could compete | 60 β-galactosidase units | 52 |  |  |  | 
scFv 171: NS3-inhibiting single-chain antibody, SEQ ID NO:6; MBP fusion SEQ ID NO:20 (protein, scFv inhibitor) scFv: EVQLQQSGAELVRSGASVKLSCTASGFNIKDYYMHWVKQRPEQGLEWIGWIDPENGDTEYAPKFQGKATMTADTSSNTAYLQLSSLTSEDTAVYYCNAWGGSSDYYAMDYWGQGTSVTVSSGGGGSGGGGSGGGGSDVVMTQTPLSLPVSLGDQASISCRSSQSLVHSNGNTYLHWYLQKPGQSPKLLIYKVSNRFSGVPDRFSGSGSGTDFTLKISRVEAEDLGVYYCFQGSHVPWTFGGGTKLEIKR | could compete | 67 β-galactosidase units | 88 | most potent inhibitors | 60 | 93 | more than 30%
scFv 162: NS3-inhibiting single-chain antibody, SEQ ID NO:5; MBP fusion SEQ ID NO:19 (protein, scFv inhibitor) scFv: EVQLQQSGAELVRSGASVKLSCTASGFNIKDYYMHWVKQRPEQGLEWIGWIDPANGNTKYDPKFQGKATITADTSSNTAYLQLSSLTSEDTAVYYCARWDWYFDVWGAGTTVTVSSGGGGSGGGGSGGGGSSVLMTQTPLSLPVSLGDQASISCRSSQSIVHSNGNTYLEWYLQKPGQSPKLLIYKVSNRFSGVPDRFSGSGSGTDFTLKISRVEAEDLGVYYCFQGSHVPWTFGGGTKLELKR | apparently did not | 84 β-galactosidase units | 62 |  |  |  | 
scFv 148: NS3-inhibiting single-chain antibody, SEQ ID NO:7; MBP fusion SEQ ID NO:21 (protein, scFv inhibitor) scFv: EIQLQQSGAELVKPGASVKLSCTASGFNIKDTFVHWVKQRPEQGLEWIGRIDPANGNTKYDPKFQGKATITAATSSNTAYLQLSSLTSEDTAVYYCATGLDYYAMDYWGQGTSVTVSSGGGGSGGGGSGGGGSDVVMTQTPLSPPVSLGDQASISCRSSQSLVHSNGNTYLHWYLQKPGQSPKLLIYKVSNRFSGVPDRFSGSGSGTDFTLKITRVEAEDLGLYFCSQSTHVPWTFGGGTKLEIKR |  | 72 β-galactosidase units | 58 |  |  |  | 
